Experiment [1] relates to HCC827 NSCLC adenocarcinoma cells. Kind of experiment: HCC827 viability (MTT) and phase contrast microscopy after co-culture with or without osimertinib. Format: cell-based. Here is the method:
Assays were performed at an effector to target cell ratio of 5:1 in the presence or absence of an EGFR small molecular inhibitor (1 nM osimertinib). Co-culture of hCER104 modified CD3+ T cells was compared with co-culture of purified hCER104 modified CD4+ T cells. Cell viability was quantified using 3-(4,5-dimethylthiazol-2-yl)-2,5-diphenyltetrazolium bromide (MTT) assay.
Specific target cell killing of HCC827 observed in hCER104 modified T cells in the presence of osimertinib.
hCER104 modified CD3+ T cells and hCER104 modified CD4+ T cells were co-cultured with HCC827 NSCLC adenocarcinoma cells treated for 48 hours with or without 1 nM osimertinib at an effector to target cell ratio of 5:1. Mock transduced T cells were used as control.

The test system is the same in experiment [2]. Kind of experiment: FACS phagocytosis assay with pHrodo-red labeled HCC827 cells. Format: cell-based. The conditions noted are these: for % phagocytosis (pHrodo-positivity): overnight co-culture with HCC827. An excerpt: FIG. 67B is a bar graph of frequency of phagocytosis among CER-modified CD4+_T cells vs. CER-modified CD8+ T cells
CD4+ or CD3+ T cells were purified from PBMCs, activated, and transduced with lentiviral vector comprising hCER104 nucleic acid. hCER104 is a human CER104 construct comprising a Tim4 binding domain, a Tim4 transmembrane domain, TLR8 engulfment signaling domain, and Dap12 engulfment signaling domain and comprises an amino acid sequence of SEQ ID NO:176. HCC827 cells harbor an EGFR mutation and treatment with EGFR inhibitor osimertinib induces exposure of phosphatidylserine on the cell surface. Transduced T cells were expanded. CER-modified T cells were co-cultured with pHrodo-red labeled HCC827 NSCLC adenocarcinoma cells overnight and evaluated by FACs for pHrodo-positive signals to detect phagocytosis of HCC827 target cells (see, FIG. 67A, box inside FACs plot indicates % phagocytosis). T cell subsets were analyzed for their capacity to phagocytosis using antibody staining. Frequency of in vitro phagocytosis among CD4+ CER-modified T cells was much higher than CD8+ CER-modified T cells (see, FIG. 67B).

Experiment [3] deals with HPV+ SCC152/luceriferase+ cells. In words: SCC152/luciferase xenograft in NSG mice, bioluminescence imaging. The conditions noted are these: CER CD4+ T cells added 1:1 to HPV E7 CD8+ T cells. Format: in vivo. Here is the method:
HPV+ SCC152 engrafted NSG mice were treated with HPV E7 TCR modified CD8+ T cells+CD4+ T cells (mock transduced), HPV E7 TCR modified CD8+ T cells+hCER104 modified CD4+ T cells, or untreated. FIG. 74B is a graph of mean values of bioluminescence signal intensities obtained for treatment group.
HPV+ SCC152/luceriferase^+ cells were engrafted in NSG mice. Once tumors were established, mice were treated with HPV E7 specific TCR (SEQ ID NO:84) modified CD8+ T cells+mock transduced CD4+ T cells, HPV E7 specific TCR modified CD8+ T cells+hCER104 (SEQ ID NO:176) modified CD4+ T cells, or untreated (n=5 per treatment group). HPV E7 CD8+ T cells and hCER104 CD4+ T cells were administered at a 1:1 ratio. Tumor volume was measured over time by bioluminescence imaging (see, FIGS. 74A-74B).

For a further experiment, the system named is HCC827 NSCLC cells. Kind of experiment: FACS phagocytosis assay of TAMRA-SE labeled HCC827 cells with or without bafilomycin. Format: cell-based. The conditions noted are these: CER-modified T cells, osimertinib treated HCC827, FACS. An excerpt:
FIGS. 73A-73B show ablation of CER-induced phagocytosis by bafilomycin, an inhibitor of phagolysosome V-ATPase. CER104-modified CD4+ T cells and mock transduced CD4+ T cells (control) were co-cultured with HCC827 cells that were labeled with TAMRA-SE fluorescent dye and treated with osimertinib. Phagocytosis was quantified by FACs.
T cells were transduced with lentiviral vector comprising hCER104 nucleic acid as described in Example 6. hCER104 modified T cells were co-cultured with HCC827 adenocarcinoma cells with or without osimertinib. […] FACs plots from in vitro phagocytosis assays in hCER104 modified T cells or mock transduced control T cells are shown in FIG. 73B.

Experiment [4] deals with E6/E7-specific human TCR/NFAT reporter cell line. Kind of experiment: Antigen cross-presentation assay with E6/E7 TCR Jurkat NFAT luciferase reporter cells. In kind it is cell-based. The conditions noted are these: CD4+ and CD8+ CER T cells after phagocytosing HPV+ tumor cells; compared to mock transduced T cells. The method, then: In a phagocytic assay step, CD4+ and CD8+ T cell lines expressing CERs were co-cultured with the CD4+ and CD8+ T cells expressing HPV E7 specific TCR and SCC152 (HPV+) cells overnight. The following day CER+ T cells were subsequently FACS-sorted. FACS plot depicts CT violet^+ CERs. Following FACS purification, antigen presentation of HPV oncoproteins was evaluated. CER-expressing cells were co-cultured at a 1:2 ratio with E6 & E7-specific TCR/NFAT reporter cell lines, and NFAT activation measured over time using a plate reader.
CER-expressing CD4^+ and CD8^+ T cell lines, after phagocytosing HPV^+ tumor cells, are capable of cross-presentation of E7 HPV oncoproteins to E7 TCR/NFAT reporter-expressing T cells as measured by NFAT activation.
CD4+ and CD8+ CER-expressing T cell lines were established from human PBMCs. […]
For assessing MHC-I cross-presentation, SCC152 HPV^+ cells were co-cultured overnight with CER123-expressing CD4+ and CD8+ T cells or mock-transduced (vector only) T cells in the presence of T cells expressing an E7-specific TCR. […] NFAT activation was assessed at serial time points (0, 6, 12, 24, and 72 hrs) by measuring luciferase activity in cell culture supernatants. […] Induction of E711-19-specific Jurkat T cells were quantified by luminescence of NFAT signaling at indicated time points and compared to Mock (vector-alone) transduced T cells (FIG. 63).
On the technique in general: Reporter assays use an easily measured gene product as a stand-in for the process of interest.

B1: hCER104: human CER104 construct: Tim4 binding domain, Tim4 transmembrane domain, TLR8 and Dap12 engulfment signaling domains; SEQ ID NO:176 (protein)
chain: ETVVTEVLGHRVTLPCLYSSWSHNSNSMCWGKDQCPYSGCKEALIRTDGMRVTSRKSAKYRLQGTIPRGDVSLTILNPSESDSGVYCCRIEVPGWFNDVKINVRLNLQRASTTTHRTATTTTRRTTTTSPTTTRQMTTTPAALPTTVVTTPDLTTGTPLQMTTIAVFTTANTCLSLTPSTLPEEATGLLTPEPSKEGPILTAESETVLPSDSWSSVESTSADTVLLTSKESKVWDLPSTSHVSMWKTSDSVSSPQPGASDTAVPEQNKTTKTGQMDGIPMSMKNEMPISQLLMIIAPSLGFVLFALFVAFLHHLFYWDVWFIYNVCLAKVKGYRSLSTSQTFYDAYISYDTKDASVTDWVINELRYHLEESRDKNVLLCLEERDWDPGLAIIDNLMQSINQSKKTVFVLTKKYAKSWNFKTAFYLALQRLMDENMDVIIFILLEPVLQHSQYLRLRQRICKSSILQWPDNPKAEGLFWQTLRNVVLTENDSRYNNMYVDSIKQYYFLGRLVPRGRGAAEAATRKQRITETESPYQELQGQRSDVYSDLNTQRPYYK
modifications: hCER104
Take B1: in experiment [1] (48 hours co-culture, CD4+ and CD3+ T cells, in the presence of osimertinib), the “killing of HCC827 cells, phase contrast microscopy” value is on record as “specific cell killing”. For the same molecule, in experiment [1] (48 hours, effector to target 5:1, with or without 1 nM osimertinib), the “HCC827 cell viability (MTT), CD4+ versus CD3+ CER-modified T cells” value is recorded as “lower cell viability”. Also, the “% phagocytosis (pHrodo-positivity)” value is recorded as 42.0% in experiment [2] (CER-modified CD4+ T cells) and 9.81% in experiment [2] (CER-modified CD8+ T cells). The “frequency of in vitro phagocytosis, CD4+ versus CD8+ CER-modified T cells” value in experiment [2] (HCC827 target cells) is “much higher”. In addition, the “tumor killing (bioluminescence)” value in experiment [3] was “enhanced tumor killing in vivo”. The “phagocytosis of fluorescent dye-labeled HCC827 cells” value in the experiment on HCC827 NSCLC cells was “exhibited phagocytosis”.

B2: CER123: Chimeric engulfment receptor: Tim4 binding, Tim4 transmembrane, TLR2 and TRAF6 signaling; SEQ ID NO: 164 (protein)
chain: MSKGLLLLWLVTELWWLYLTPAASEDTIIGFLGQPVTLPCHYLSWSQSRNSMCWGKGSCPNSKCNAELLRTDGTRIISRKSTKYTLLGKVQFGEVSLTISNTNRGDSGVYCCRIEVPGWFNDVKKNVRLELRRATTTKKPTTTTRPTTTPYVTTTTPELLPTTVMTTSVLPTTTPPQTLATTAFSTAVTTCPSTTPGSFSQETTKGSAFTTESETLPASNHSQRSMMTISTDIAVLRPTGSNPGILPSTSQLTTQKTTLTTSESLQKTTKSHQINSRQTILIIACCVGFVLMVLLFLAFLHRFHGLWYMKMMWAWLQAKRKPRKAPSRNICYDAFVSYSERDAYWVENLMVQELENFNPPFKLCLHKRDFIPGKWIIDNIIDSIEKSHKTVFVLSENFVKSEWCKYELDFSHFRLFDENNDAAILILLEPIEKKAIPQRFCKLRKIMNTKTYLEWPMDEAQREGFWVNLRAAIKSMSLLNCENSCGSSQSESDCCVAMASSCSAVTKDDSVGGTASTGNLSSSFMEEIQGYDVEFDPPLESKYECPICLMALREAVQTPCGHRFCKACIIKSIRDAGHKCPVDNEILLENQLFPDNFAKREILSLMVKCPNEGCLHKMELRHLEDHQAHCEFALMDCPQCQRPFQKFHINIHILKDCPRRQVSCDNCAASMAFEDKEIHDQNCPLANVICEYCNTILIREQMPNHYDLDCPTAPIPCTFSTFGCHEKMQRNHLARHLQENTQSHMRMLA
modifications: CER123, amino acids 1-22 are signal peptide
Take B2: in experiment [4], the “cross-presentation of HPV E7 oncoproteins (NFAT luminescence)” value is “enhanced cross-presentation efficiency”.
